Measurements as given in patent US20080254026A1 (published 2008).
One block for each binder: values may come before it.

Legend:
[1] = molecular target: human CD40 on normal human B cells (PBMC or purified B cells) (human, UniProt P25942 20-277); test: cell-based or functional assay
[2] = molecular target: T1, CD40 extracellular Domain 3 GST fusion protein (human, UniProt P25942 104-144); test: western blot of CD40 domain GST fusion proteins
T1 construct: Expressed in insect cells with a GP67 secretion signal; not shown: glutathione S-transferase (GST) fusion partner
T1 chain: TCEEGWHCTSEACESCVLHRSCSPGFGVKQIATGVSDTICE
Protocol: (§1) To map the antigenic region on CD40, the four extracellular domains of CD40 were cloned and expressed in insect cells as GST fusion proteins. The secretion of the four domains was ensured with a GP67 secretion signal. Insect cell supernatant was analyzed by SDS-PAGE and western blot analysis to identify the domain containing the epitope.

[3] = molecular target: T2, CD40 extracellular Domain 4 GST fusion protein (human, UniProt P25942 145-187); test: western blot of CD40 domain GST fusion proteins
T2 construct: Expressed in insect cells with a GP67 secretion signal; not shown: glutathione S-transferase (GST) fusion partner
T2 chain: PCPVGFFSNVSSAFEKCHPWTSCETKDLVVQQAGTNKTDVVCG
Protocol: as §1

[4] = molecular target: T3, CD40 extracellular Domain 1 GST fusion protein (human); test: western blot of CD40 domain GST fusion proteins
T3 construct: Expressed in insect cells with a GP67 secretion signal; not shown: glutathione S-transferase (GST) fusion partner
T3 chain: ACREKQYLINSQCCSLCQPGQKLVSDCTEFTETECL
Protocol: as §1

[5] = molecular target: T4, CD40 extracellular Domain 2 GST fusion protein (human, UniProt P25942 61-104); test: western blot of CD40 domain GST fusion proteins (Domain 2)
T4 construct: Expressed in insect cells with a GP67 secretion signal; not shown: glutathione S-transferase (GST) fusion partner
T4 chain: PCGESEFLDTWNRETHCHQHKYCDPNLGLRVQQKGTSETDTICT
Protocol: as §1

[6] = molecular target: T5, CD40 Domain 2 SPOTs peptide, spot 18 (HQHKYCDPNL) (human); test: SPOTs membrane of 10mer peptides of CD40 Domain 2; spot 18 listed among the results
T5 construct: 10mer synthesized on a SPOTs membrane; also called Spot Number 18
T5 peptide: HQHKYCDPNL
Description: (§2) SPOTs membranes (Sigma) containing thirty-five 10 mer peptides with a 1-amino-acid offset were generated.

[7] = molecular target: T6, CD40 Domain 2 SPOTs peptide, spot 19 (QHKYCDPNLG) (human); test: SPOTs membrane of 10mer peptides of CD40 Domain 2; spot 19 listed among the results
T6 construct: 10mer synthesized on a SPOTs membrane; also called Spot Number 19
T6 peptide: QHKYCDPNLG
Description: as §2

[8] = molecular target: T7, CD40 Domain 2 SPOTs peptide, spot 20 (HKYCDPNLGL) (human); test: SPOTs membrane of 10mer peptides of CD40 Domain 2; spot 20 listed among the results
T7 construct: 10mer synthesized on a SPOTs membrane; also called Spot Number 20
T7 peptide: HKYCDPNLGL
Description: as §2

[9] = molecular target: T8, CD40 Domain 2 SPOTs peptide, spot 21 (KYCDPNLGLR) (human); test: SPOTs membrane of 10mer peptides of CD40 Domain 2; spot 21 listed among the results
T8 construct: 10mer synthesized on a SPOTs membrane; also called Spot Number 21
T8 peptide: KYCDPNLGLR
Description: as §2

[10] = molecular target: T9, CD40 Domain 2 SPOTs peptide, spot 22 (YCDPNLGLRV) (human); test: SPOTs membrane of 10mer peptides of CD40 Domain 2; spot 22 listed among the results
T9 construct: 10mer synthesized on a SPOTs membrane; also called Spot Number 22
T9 peptide: YCDPNLGLRV
Description: as §2

[11] = molecular target: T10, Recombinant soluble CD40-his (human, UniProt P25942 21-193); test: Biacore
T10 construct: Analyte in the Biacore experiments; not shown: his tag
T10 sequence (P25942 21-193 limits assumed): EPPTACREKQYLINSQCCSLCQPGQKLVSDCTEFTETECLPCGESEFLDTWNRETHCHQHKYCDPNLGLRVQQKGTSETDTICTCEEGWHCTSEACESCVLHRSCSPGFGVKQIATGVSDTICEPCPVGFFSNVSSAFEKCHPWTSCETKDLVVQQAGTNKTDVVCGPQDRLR
Protocol: (§3) Protein A was immobilized onto CM5 biosensor chips via amine coupling. Human anti-CD40 monoclonal antibodies, at 1.5 μg/ml, were captured onto the modified biosensor surface for 1.5 minutes at 10 μl/min. Recombinant soluble CD40-his was flowed over the biosensor surface at varying concentrations. Antibody and antigen were diluted in 0.01 M HEPES pH 7.4, 0.15 M NaCl, 3 mM EDTA, 0.005% Surfactant P20 (HBS-EP). Kinetic and affinity constants were determined using the Biaevaluation software with a 1:1 interaction model/global fit.

[12] = molecular target: human CD40 antigen expressed on the surface of cells (human, UniProt P25942 20-277); test: cell-based or functional assay
Sequence of human CD40 antigen expressed on the surface of cells (P25942 20-277): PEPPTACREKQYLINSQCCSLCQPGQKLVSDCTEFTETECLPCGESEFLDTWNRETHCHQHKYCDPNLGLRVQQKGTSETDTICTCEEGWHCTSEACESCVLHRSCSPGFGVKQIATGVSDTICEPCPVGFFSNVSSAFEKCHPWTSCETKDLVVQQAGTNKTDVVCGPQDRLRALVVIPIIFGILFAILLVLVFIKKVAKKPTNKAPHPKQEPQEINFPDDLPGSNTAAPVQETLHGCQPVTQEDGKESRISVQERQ

[13] = molecular target: T11, CD40 extracellular Domain 2 GST fusion protein (human, UniProt P25942 61-104); test: Western blot of GST domain fusions
T11 construct: Expressed in insect cells with a GP67 secretion signal; not shown: GST fusion partner
T11 chain: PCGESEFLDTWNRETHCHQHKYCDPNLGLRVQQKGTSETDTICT

[14] = molecular target: T12, SPOTs peptide, spot 18 (HQHKYCDPNL) (human); test: SPOTs peptide membrane, antibody at 10 µg/ml
T12 peptide: HQHKYCDPNL
Description: as §2

[15] = molecular target: T13, SPOTs peptide, spot 19 (QHKYCDPNLG) (human); test: SPOTs peptide membrane, antibody at 10 µg/ml
T13 peptide: QHKYCDPNLG
Description: as §2

[16] = molecular target: T14, SPOTs peptide, spot 20 (HKYCDPNLGL) (human); test: SPOTs peptide membrane, antibody at 10 µg/ml
T14 peptide: HKYCDPNLGL
Description: as §2

[17] = molecular target: T15, SPOTs peptide, spot 21 (KYCDPNLGLR) (human); test: SPOTs peptide membrane, antibody at 10 µg/ml
T15 peptide: KYCDPNLGLR
Description: as §2

[18] = molecular target: T16, SPOTs peptide, spot 22 (YCDPNLGLRV) (human); test: SPOTs peptide membrane, antibody at 10 µg/ml
T16 peptide: YCDPNLGLRV
Description: as §2

[19] = molecular target: T17, CD40 extracellular Domain 1 GST fusion protein (human); test: SDS-PAGE and Western blot of insect cell supernatant with GST domain fusions
T17 construct: Expressed in insect cells with a GP67 secretion signal; not shown: GST fusion partner
T17 chain: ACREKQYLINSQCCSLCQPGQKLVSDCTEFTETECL
Protocol: as §1

[20] = molecular target: T18, CD40 extracellular Domain 3 GST fusion protein (human, UniProt P25942 104-144); test: as above
T18 construct: not shown: GST fusion partner
T18 chain: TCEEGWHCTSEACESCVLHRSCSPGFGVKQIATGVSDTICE
Protocol: as §1

[21] = molecular target: T19, CD40 extracellular Domain 4 GST fusion protein (human, UniProt P25942 145-187); test: as above
T19 construct: not shown: GST fusion partner
T19 chain: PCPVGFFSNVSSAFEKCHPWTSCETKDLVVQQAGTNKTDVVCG
Protocol: as §1

[22] = molecular target: T10, Recombinant soluble CD40-his; test: Biacore, antibody captured on protein A CM5 chip, CD40-his as analyte, 1:1 model/global fit
Protocol: as §3

[23] = molecular target: T4, CD40 extracellular Domain 2 GST fusion …; test: western blot of CD40 Domain 2, reduced
[24] = molecular target: T20, CD40 Domain 2 10-mer peptide HKYCDPNLGL (spot 20) (human); test: SPOTs membrane of 10-mer peptides, spot 20 listed as recognised
T20 construct: Synthetic 10-mer on a SPOTs membrane (Sigma)
T20 peptide: HKYCDPNLGL
Description: as §2

[25] = molecular target: T21, CD40 Domain 2 10-mer peptide KYCDPNLGLR (spot 21) (human); test: SPOTs membrane of 10-mer peptides, spot 21 listed as recognised
T21 construct: Synthetic 10-mer on a SPOTs membrane (Sigma)
T21 peptide: KYCDPNLGLR
Description: as §2

[26] = molecular target: T22, CD40 Domain 2 10-mer peptide YCDPNLGLRV (spot 22) (human); test: SPOTs membrane of 10-mer peptides, spot 22 listed as recognised
T22 construct: Synthetic 10-mer on a SPOTs membrane (Sigma)
T22 peptide: YCDPNLGLRV
Description: as §2

[27] = molecular target: T14, SPOTs peptide, spot 20 (HKYCDPNLGL); test: SPOTs peptide membrane, stripped and reprobed
Description: as §2

[28] = molecular target: T15, SPOTs peptide, spot 21 (KYCDPNLGLR); test: SPOTs peptide membrane, stripped and reprobed
Description: as §2

[29] = molecular target: T16, SPOTs peptide, spot 22 (YCDPNLGLRV); test: SPOTs peptide membrane, stripped and reprobed
Description: as §2

Sequence of human CD40 on normal human B cells (PBMC or purified B cells) (P25942 20-277): as the sequence (P25942 20-277) above

IC50(nM) for inhibition of CD40L-induced PBMC proliferation; PBMC-025 Donor#1 [1]: 24.2 nM
IC50(nM) for inhibition of CD40L-induced PBMC proliferation; PBMC-025 Donor#2 [1]: 66 nM
IC50(nM) for inhibition of CD40L-induced PBMC proliferation; PBMC-026 Donor#1 [1]: 45 nM
IC50(nM) for inhibition of CD40L-induced PBMC proliferation; PBMC-026 Donor#2 [1]: 84 nM
IC50(nM) for inhibition of CD40L-induced PBMC proliferation; PBMC-028 Donor#1 [1]: 30.1 nM
IC50(nM) for inhibition of CD40L-induced PBMC proliferation; PBMC-028 Donor#2 [1]: 34.7 nM
IC50(nM) for inhibition of CD40L-induced PBMC proliferation; PBMC-029 Donor#1 [1]: 28.1 nM
IC50(nM) for inhibition of CD40L-induced PBMC proliferation; PBMC-029 Donor#2 [1]: 55.4 nM
IC50(nM) for inhibition of CD40L-induced PBMC proliferation; PBMC-030 Donor#1 [1]: 35.5 nM
IC50(nM) for inhibition of CD40L-induced PBMC proliferation; PBMC-030 Donor#2 [1]: 103 nM
IC50(nM) for inhibition of CD40L-induced PBMC proliferation; PBMC-032 Donor#1 [1]: 40.4 nM
average IC50(nM) for inhibition of CD40L-induced PBMC proliferation [1]: 49.6 nM
B1: monoclonal antibody CHIR-12.12 (antibody, human IgG1, kappa)
heavy: not shown
light: DIVMTQSPLSLTVTPGEPASISCRSSQSLLYSNGYNYLDWYLQKPGQSPQVLISLGSNRASGVPDRFSGSGSGTDFTLKISRVEAEDVGVYYCMQARQTPFTFGPGTKVDIRRTVAAPSVFIFPPSDEQLKSGTASVVCLLNNFYPREAKVQWKVDNALQSGNSQESVTEQDSKDSTYSLSSTLTLSKADYEKHKVYACEVTHQGLSSPVTKSFNRGEC

binding result [2]: no binding
binding result [3]: no binding
binding result [4]: no binding
binding result [5]: binds
binding result [6]: binds
binding result [7]: binds
binding result [8]: binds
binding result [9]: binds
binding result [10]: binds
B2: monoclonal antibody CHIR-12.12 (antibody, human IgG1, kappa)
heavy: not shown
light: DIVMTQSPLSLTVTPGEPASISCRSSQSLLYSNGYNYLDWYLQKPGQSPQVLISLGSNRASGVPDRFSGSGSGTDFTLKISRVEAEDVGVYYCMQARQTPFTFGPGTKVDIRRTVAAPSVFIFPPSDEQLKSGTASVVCLLNNFYPREAKVQWKVDNALQSGNSQESVTEQDSKDSTYSLSSTLTLSKADYEKHKVYACEVTHQGLSSPVTKSFNRGEC
notes: Fully human IgG1 kappa anti-CD40 antibody; Leader residues (1-19 heavy, 1-20 light) left out as stated

Kd [11]: 0.5 nM
IC50: antibody concentration to inhibit 50% of CD-40 ligand-induced lymphocyte proliferation, average of 6 donors [12]: 47 pM
binding result [13]: binds
binding result [14]: binds
binding result [15]: binds
binding result [16]: binds
binding result [17]: binds
binding result [18]: binds
binding result [19]: no binding
binding result [20]: no binding
binding result [21]: no binding
Kd [22]: 0.51 nM
B3: monoclonal antibody CHIR-12.12 (antibody, human IgG1, kappa)
light: DIVMTQSPLSLTVTPGEPASISCRSSQSLLYSNGYNYLDWYLQKPGQSPQVLISLGSNRASGVPDRFSGSGSGTDFTLKISRVEAEDVGVYYCMQARQTPFTFGPGTKVDIRRTVAAPSVFIFPPSDEQLKSGTASVVCLLNNFYPREAKVQWKVDNALQSGNSQESVTEQDSKDSTYSLSSTLTLSKADYEKHKVYACEVTHQGLSSPVTKSFNRGEC
heavy: not shown

Second part, the binder before the results:

B4: monoclonal antibody CHIR-5.9 (antibody, human IgG1, kappa)
heavy: not shown
light: AIVMTQPPLSSPVTLGQPASISCRSSQSLVHSDGNTYLNWLQQRPGQPPRLLIYKFFRRLSGVPDRFSGSGAGTDFTLKISRVEAEDVGVYYCMQVTQFPHTFGQGTRLEIKRTVAAPSVFIFPPSDEQLKSGTASVVCLLNNFYPREAKVQWKVDNALQSGNSQESVTEQDSKDSTYSLSSTLTLSKADYEKHKVYACEVTHQGLSSPVTKSFNRGEC
notes: Fully human IgG1 kappa anti-CD40 antibody; Leader residues (1-19 heavy, 1-20 light) left out as stated; also called mAb CHIR-5.9; CHIR-5.9/5.11
binding result [23]: binds
binding result [2]: no binding
binding result [3]: no binding
binding result [4]: no binding

B5: monoclonal antibody CHIR-5.9 (antibody, human IgG1, kappa)
light: AIVMTQPPLSSPVTLGQPASISCRSSQSLVHSDGNTYLNWLQQRPGQPPRLLIYKFFRRLSGVPDRFSGSGAGTDFTLKISRVEAEDVGVYYCMQVTQFPHTFGQGTRLEIKRTVAAPSVFIFPPSDEQLKSGTASVVCLLNNFYPREAKVQWKVDNALQSGNSQESVTEQDSKDSTYSLSSTLTLSKADYEKHKVYACEVTHQGLSSPVTKSFNRGEC
heavy: not shown
notes: Fully human IgG1 kappa anti-CD40 antibody; also called mAb CHIR-5.9
binding result [24]: binds
binding result [25]: binds
binding result [26]: binds

B6: monoclonal antibody CHIR-5.9 (antibody, human IgG1, kappa)
light: AIVMTQPPLSSPVTLGQPASISCRSSQSLVHSDGNTYLNWLQQRPGQPPRLLIYKFFRRLSGVPDRFSGSGAGTDFTLKISRVEAEDVGVYYCMQVTQFPHTFGQGTRLEIKRTVAAPSVFIFPPSDEQLKSGTASVVCLLNNFYPREAKVQWKVDNALQSGNSQESVTEQDSKDSTYSLSSTLTLSKADYEKHKVYACEVTHQGLSSPVTKSFNRGEC
heavy: not shown
notes: also called mAb 5.9
Kd [11]: 12 nM
binding result [13]: binds
binding result [27]: binds
binding result [28]: binds
binding result [29]: binds
binding result [19]: no binding
binding result [20]: no binding
binding result [21]: no binding
Kd [22]: 12.2 nM
